B1: Phospholipid-transporting ATPase IC (Homo sapiens), O43520 (parent)
chain: MSTERDSETTFDEDSQPNDEVVPYSDDETEDELDDQGSAVEPEQNRVNREAEENREPFRKECTWQVKANDRKYHEQPHFMNTKFLCIKESKYANNAIKTYKYNAFTFIPMNLFEQFKRAANLYFLALLILQAVPQISTLAWYTTLVPLLVVLGVTAIKDLVDDVARHKMDKEINNRTCEVIKDGRFKVAKWKEIQVGDVIRLKKNDFVPADILLLSSSEPNSLCYVETAELDGETNLKFKMSLEITDQYLQREDTLATFDGFIECEEPNNRLDKFTGTLFWRNTSFPLDADKILLRGCVIRNTDFCHGLVIFAGADTKIMKNSGKTRFKRTKIDYLMNYMVYTIFVVLILLSAGLAIGHAYWEAQVGNSSWYLYDGEDDTPSYRGFLIFWGYIIVLNTMVPISLYVSVEVIRLGQSHFINWDLQMYYAEKDTPAKARTTTLNEQLGQIHYIFSDKTGTLTQNIMTFKKCCINGQIYGDHRDASQHNHNKIEQVDFSWNTYADGKLAFYDHYLIEQIQSGKEPEVRQFFFLLAVCHTVMVDRTDGQLNYQAASPDEGALVNAARNFGFAFLARTQNTITISELGTERTYNVLAILDFNSDRKRMSIIVRTPEGNIKLYCKGADTVIYERLHRMNPTKQETQDALDIFANETLRTLCLCYKEIEEKEFTEWNKKFMAASVASTNRDEALDKVYEEIEKDLILLGATAIEDKLQDGVPETISKLAKADIKIWVLTGDKKETAENIGFACELLTEDTTICYGEDINSLLHARMENQRNRGGVYAKFAPPVQESFFPPGGNRALIITGSWLNEILLEKKTKRNKILKLKFPRTEEERRMRTQSKRRLEAKKEQRQKNFVDLACECSAVICCRVTPKQKAMVVDLVKRYKKAITLAIGDGANDVNMIKTAHIGVGISGQEGMQAVMSSDYSFAQFRYLQRLLLVHGRWSYIRMCKFLRYFFYKNFAFTLVHFWYSFFNGYSAQTAYEDWFITLYNVLYTSLPVLLMGLLDQDVSDKLSLRFPGLYIVGQRDLLFNYKRFFVSLLHGVLTSMILFFIPLGAYLQTVGQDGEAPSDYQSFAVTIASALVITVNFQIGLDTSYWTFVNAFSIFGSIALYFGIMFDFHSAGIHVLFPSAFQFTGTASNALRQPYIWLTIILAVAVCLLPVVAIRFLSMTIWPSESDKIQKHRKRLKAEEQWQRRQQVFRRGVSTRRSAYAFSHQRGYADLISSGRSIRKKRSPLDAIVADGTAEYRRTGDS
partner: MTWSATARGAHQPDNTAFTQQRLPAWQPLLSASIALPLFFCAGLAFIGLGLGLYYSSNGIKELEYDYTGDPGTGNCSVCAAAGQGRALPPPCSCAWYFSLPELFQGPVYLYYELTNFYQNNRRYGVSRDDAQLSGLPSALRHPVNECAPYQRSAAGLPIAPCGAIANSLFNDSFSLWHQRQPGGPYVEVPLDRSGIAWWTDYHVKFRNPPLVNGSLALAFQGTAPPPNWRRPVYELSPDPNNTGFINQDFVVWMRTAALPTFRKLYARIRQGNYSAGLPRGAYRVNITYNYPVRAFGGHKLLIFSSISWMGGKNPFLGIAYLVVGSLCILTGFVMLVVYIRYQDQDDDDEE
B2: Phospholipid-transporting ATPase IC (Homo sapiens), O43520 (parent)
chain: B1 chain
partner: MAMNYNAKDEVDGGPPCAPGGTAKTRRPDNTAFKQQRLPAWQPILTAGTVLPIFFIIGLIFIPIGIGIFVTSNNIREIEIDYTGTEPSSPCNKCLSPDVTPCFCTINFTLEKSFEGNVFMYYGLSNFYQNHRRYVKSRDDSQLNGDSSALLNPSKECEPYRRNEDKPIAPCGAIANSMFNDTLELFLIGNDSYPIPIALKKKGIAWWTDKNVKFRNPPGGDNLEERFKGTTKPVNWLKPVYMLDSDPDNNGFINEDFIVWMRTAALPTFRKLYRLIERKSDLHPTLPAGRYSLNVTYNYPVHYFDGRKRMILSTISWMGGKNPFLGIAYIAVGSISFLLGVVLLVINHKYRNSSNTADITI
B3: Phospholipid-transporting ATPase ID (Homo sapiens), P98198 (parent)
chain: MTVPKEMPEKWARAQAPPSWSRKKPSWGTEEERRARANDREYNEKFQYASNCIKTSKYNILTFLPVNLFEQFQEVANTYFLFLLILQLIPQISSLSWFTTIVPLVLVLTITAVKDATDDYFRHKSDNQVNNRQSQVLINGILQQEQWMNVCVGDIIKLENNQFVAADLLLLSSSEPHGLCYIETAELDGETNMKVRQAIPVTSELGDISKLAKFDGEVICEPPNNKLDKFSGTLYWKENKFPLSNQNMLLRGCVLRNTEWCFGLVIFAGPDTKLMQNSGRTKFKRTSIDRLMNTLVLWIFGFLVCMGVILAIGNAIWEHEVGMRFQVYLPWDEAVDSAFFSGFLSFWSYIIILNTVVPISLYVSVEVIRLGHSYFINWDKKMFCMKKRTPAEARTTTLNEELGQVEYIFSDKTGTLTQNIMVFNKCSINGHSYGDVFDVLGHKAELGERPEPVDFSFNPLADKKFLFWDPSLLEAVKIGDPHTHEFFRLLSLCHTVMSEEKNEGELYYKAQSPDEGALVTAARNFGFVFRSRTPKTITVHEMGTAITYQLLAILDFNNIRKRMSVIVRNPEGKIRLYCKGADTILLDRLHHSTQELLNTTMDHLNEYAGEGLRTLVLAYKDLDEEYYEEWAERRLQASLAQDSREDRLASIYEEVENNMMLLGATAIEDKLQQGVPETIALLTLANIKIWVLTGDKQETAVNIGYSCKMLTDDMTEVFIVTGHTVLEVREELRKAREKMMDSSRSVGNGFTYQDKLSSSKLTSVLEAVAGEYALVINGHSLAHALEADMELEFLETACACKAVICCRVTPLQKAQVVELVKKYKKAVTLAIGDGANDVSMIKTAHIGVGISGQEGIQAVLASDYSFSQFKFLQRLLLVHGRWSYLRMCKFLCYFFYKNFAFTMVHFWFGFFCGFSAQTVYDQYFITLYNIVYTSLPVLAMGVFDQDVPEQRSMEYPKLYEPGQLNLLFNKREFFICIAQGIYTSVLMFFIPYGVFADATRDDGTQLADYQSFAVTVATSLVIVVSVQIGLDTGYWTAINHFFIWGSLAVYFAILFAMHSNGLFDMFPNQFRFVGNAQNTLAQPTVWLTIVLTTVVCIMPVVAFRFLRLNLKPDLSDTVRYTQLVRKKQKAQHRCMRRVGRTGSRRSGYAFSHQEGFGELIMSGKNMRLSSLALSSFTTRSSSSWIESLRRKKSDSASSPSGGADKPLKG
partner: B2 partner
B4: Phospholipid-transporting ATPase ID (Homo sapiens), P98198 (parent)
chain: B3 chain
partner: B1 partner

The variants in the first assay derive from B1. The conditions noted are these: with cc50b_human TMEM30B.
Take D454N: the “effect of a mutation on the interaction” value was “decreasing interaction strength”.

The variants in a further assay derive from B2. The conditions noted are these: with cc50a_human TMEM30A.
On to D454N, for which the “effect of a mutation on the interaction” value is given as “decreasing interaction strength”.

The variants in another assay derive from B3. The conditions noted are these: with cc50a_human TMEM30A.
Turning to D411N, the “effect of a mutation on the interaction” value is “decreasing interaction strength”.

Another assay covers variants of B4. The settings on record: with cc50b_human TMEM30B.
With D411N, the “effect of a mutation on the interaction” value is given as “with no effect”.

The values are drawn from IntAct's records for PubMed 20961850.
